Reference: US20220281976A1 (Alector, published 2022)

T1: mouse CD33 Fc fusion protein (mouse, UniProt Q63994 18-240, limits assumed)
T1 construct: also called mCD33-Fc
T1 sequence: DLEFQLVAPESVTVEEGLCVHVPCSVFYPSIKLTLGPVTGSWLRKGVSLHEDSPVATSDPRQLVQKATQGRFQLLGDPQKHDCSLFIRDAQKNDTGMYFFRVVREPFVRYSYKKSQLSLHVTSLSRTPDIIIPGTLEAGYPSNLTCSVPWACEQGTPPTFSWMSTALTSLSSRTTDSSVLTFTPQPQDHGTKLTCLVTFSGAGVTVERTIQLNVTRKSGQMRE


How the values were obtained:
human CD33 [1] = molecular target: T2, human CD33 (human, UniProt P20138 18-364); experiment: flow cytometry, human primary T cells;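 also: binding of anti-CD33 antibodies at 10 ug/ml to human primary T cells, 1 h on ice, detected with PE-labelled secondary antibody, read as flow cytometry MFI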
T2 construct: CD33 on human primary dendritic cells, macrophages, monocytes and T cells and on CHO cells expressing recombinant human CD33; also called Siglec-3; hCD33
Method: (§1) Initial characterization of CD33 antibodies involved determining their ability to bind CD33 expressed on a CHO cell line, on human primary monocytes, human primary macrophages, human primary dendritic cells, and on human primary T cells. Cells were harvested, plated at 10⁶/ml in a 96 well plate, and incubated in 100 ul PBS containing 2% FBS, 2 mM EDTA and 10 ug/ml Mab and Fc blocking reagent for 1 hour in ice. Cells were washed twice and incubated in 100 ul PBS containing 2% FBS, 2 mM EDTA and 5 ug/ml PE-conjugated secondary antibody for 30 minutes on ice. Cells were washed twice in cold PBS and analyze by flow cytometry on a BD FACS Canto. Data analysis and calculation of MFI values was performed with FlowJo (TreeStar) software version 10.0.7.

human CD33 [2] = molecular target: T2, human CD33; experiment: flow cytometry, human primary dendritic cells;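 also: binding of anti-CD33 antibodies (10 ug/ml, 1 h on ice) to human primary dendritic cells, detected with a PE-labelled secondary antibody, reported as flow cytometry MFI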
Method: as §1

human CD33 [3] = molecular target: T2, human CD33; experiment: flow cytometry, human primary monocytes; parameters: reference not given here;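 also: binding of anti-CD33 antibodies at 10 ug/ml to human primary monocytes, 1 h on ice, detected by PE-labelled secondary antibody, flow cytometry readout as mean fluorescence intensity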
[4] = molecular target: T3, human CD33 Fc fusion protein (human, UniProt P20138 18-259); experiment: ForteBio BLI or MSD-SET, IgG, avid;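 also: Anti-CD33 IgG affinity by BLI, IgG captured on AHQ sensors with antigen in solution and a one-to-one kinetic fit, or by MSD solution equilibrium titration with quadratic fit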
T3 construct: also called hCD33-Fc; human CD33/Fc chimera (R&D Systems)
Method: The binding affinity of each anti-CD33 antibody was determined by measuring their KD by ForteBio or MSD-SET. […] Briefly, ForteBio affinity measurements were performed by loading IgGs on-line onto AHQ sensors. Sensors were equilibrated off-line in assay buffer for 30 min and then monitored on-line for 60 seconds for baseline establishment. Sensors with loaded IgGs were exposed to 100 nM antigen for 5 minutes, then transferred to assay buffer for 5 min for off-rate measurement. Kinetics were analyzed using the 1:1 binding model.
Solution equilibrium titrations (SET) were performed in PBS+0.1% IgG-Free BSA (PBSF) with antigen held constant at 50 pM and incubated with 3-to 5-fold serial dilutions of antibody starting at 10 nM. Antibodies (20 nM in PBS) were coated onto standard bind MSD-ECL plates overnight at 4° C. or at room temperature for 30 min. Plates were then blocked for 30 min with shaking at 700 rpm, followed by three washes with wash buffer (PBSF+0.05% Tween 20). SET samples were applied and incubated on the plates for 150s with shaking at 700 rpm followed by one wash. Antigen captured on a plate was detected with 250 ng/mL sulfotag-labeled streptavidin in PBSF by incubation on the plate for 3 min. The plates were washed three times with wash buffer and then read on the MSD Sector Imager 2400 instrument using 1× Read Buffer T with surfactant. The percent free antigen was plotted as a function of titrated antibody in Prism and fit to a quadratic equation to extract the KD. To improve throughput, liquid handling robots were used throughout MSD-SET experiments, including SET sample preparation.

human CD33 [5] = molecular target: T2, human CD33; experiment: flow cytometry, human primary macrophages;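 also: binding of CD33 antibodies at 10 µg/ml to human primary macrophages, 1 h on ice, detected with PE-labelled secondary antibody by flow cytometry, reported as MFI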
[6] = molecular target: T3, human CD33 Fc fusion protein; experiment: RBC adhesion to plate-bound CD33-Fc; antibody 0.5 ug/ml;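 also: Plate-coated CD33-Fc preincubated 1 h with antibody, then red blood cells added for 1 h at room temperature, adherent cells lysed and quantified via peroxidase activity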
[7] = molecular target: T3, human CD33 Fc fusion protein; experiment: RBC adhesion to plate-bound CD33-Fc; antibody 1.0 ug/ml;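 also: red blood cells adhering to plate-coated CD33-Fc after 1 h antibody pretreatment, then 1 h at room temperature, bound cells read as peroxidase activity after lysis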
[8] = molecular target: T4, human monomeric His tagged CD33 protein (human, UniProt P20138 18-259); experiment: ForteBio BLI or MSD-SET, IgG, monomeric antigen;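 also: BLI: antibodies captured on AHQ sensors, 100 nM antigen association 5 min, dissociation 5 min, 1:1 fit. MSD-SET: antigen fixed at 50 pM, antibody titrated, quadratic fit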
T4 construct: also called hCD33-His

[9] = molecular target: T1, mouse CD33 Fc fusion protein; experiment: ForteBio BLI or MSD-SET
human CD33 [10] = molecular target: T2, human CD33; experiment: cell-based or functional assay

T2 sequence (P20138 18-364): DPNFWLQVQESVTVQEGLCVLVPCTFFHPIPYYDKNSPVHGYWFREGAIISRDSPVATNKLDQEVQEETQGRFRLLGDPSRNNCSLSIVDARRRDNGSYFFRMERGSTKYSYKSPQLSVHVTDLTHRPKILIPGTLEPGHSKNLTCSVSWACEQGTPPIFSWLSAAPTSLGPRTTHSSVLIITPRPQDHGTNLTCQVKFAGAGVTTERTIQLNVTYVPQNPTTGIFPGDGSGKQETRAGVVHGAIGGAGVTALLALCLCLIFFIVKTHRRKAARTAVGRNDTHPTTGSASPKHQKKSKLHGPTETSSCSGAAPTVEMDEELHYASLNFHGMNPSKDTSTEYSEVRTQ
T3 sequence (P20138 18-259 limits assumed): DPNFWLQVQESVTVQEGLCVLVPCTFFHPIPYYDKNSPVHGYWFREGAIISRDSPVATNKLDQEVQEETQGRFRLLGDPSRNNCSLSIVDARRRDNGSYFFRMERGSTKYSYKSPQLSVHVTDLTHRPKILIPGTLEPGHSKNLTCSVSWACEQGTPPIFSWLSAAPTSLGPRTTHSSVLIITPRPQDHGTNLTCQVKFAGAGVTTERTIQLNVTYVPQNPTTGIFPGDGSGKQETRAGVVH
T4 sequence (P20138 18-259 limits assumed): as above

Binder	T cell MFI (human CD33 [1])	DC MFI (human CD33 [2])	Monocyte MFI (human CD33 [3])	Kd [4]	Macrophage MFI (human CD33 [5])	Percent RBC Binding to CD33 [6]	Percent RBC Binding to CD33 [7]	Kd [8]	binding result [9]	Percent CD33 Surface Expression, DC % CD33 (human CD33 [10])	Percent CD33 Surface Expression, Monocyte % CD33 (human CD33 [10])	Percent CD33 Surface Expression, Macrophage % CD33 (human CD33 [10])
C-92 (antibody, V domains shown, human IgG1) VH: EVQLVESGGGLVKPGGSLRLSCAASGFTFSSYSMNWVRQAPGKGLEWVSSISSSSSYIYYADSVKGRFTISRDNAKNSLYLQMNSLRAEDTAVYYCARLGATATTDYAYGMDVWGQGTTVTVSS VL: not shown	42.3	107	918	3.4 nM	537	98.5%	76.2%	15.7 nM	no binding (tested: 100 nM)	73.9%	79.2%	–
C-8 (antibody, V domains shown, human IgG1) VH: not shown VL: EIVLTQSPGTLSLSPGERATLSCRASQSVSSSFLAWYQQKPGQAPRLLIYGASSRATGIPDRFSGSGSGTDFTLTISRLEPEDFAVYYCQQVASPPPTFGGGTKVEIK	193	1370	204	1.95 nM	980	12.7%	12.7%	6.94 nM	no binding (tested: 100 nM)	42.1%	51.9%	87.3%
C-84 (antibody, V domains shown, human IgG1) VH: not shown VL: DIQMTQSPSTLSASVGDRVTITCRASQSISSWLAWYQQKPGKAPKLLIYDASSLESGVPSRFSGSGSGTEFTLTISSLQPDDFATYYCQQVNRYPFTFGGGTKVEIK	95.8	55	532	7.39 nM	313	96.8%	103%	62.6 nM	no binding (tested: 100 nM)	75.9%	90.4%	–
C-90 (antibody, V domains shown, human IgG1) VH: EVQLVESGGGLVQPGGSLRLSCAASGFTFSSYWMSWVRQAPGKGLEWVANINQDGSEKYYVDSVKGRFTISRDNAKNSLYLQMNSLRAEDTAVYYCAREAGAVTGYRWFDPWGQGTLVTVSS VL: DIQMTQSPSSLSASVGDRVTITCRASQSISSYLNWYQQKPGKAPKLLIYGASSLQSGVPSRFSGSGSGTDFTLTISSLQPEDFATYYCQQQYLTPLTFGGGTKVEIK	329	151	987	1.51 nM	1260	17.2%	6.8%	5.74 nM	no binding (tested: 100 nM)	18.5%	35.4%	41.3%
C-91 (antibody, V domains shown, human IgG1) VH: EVQLVESGGGLVQPGGSLRLSCAASGFTFSSYWMSWVRQAPGKGLEWVANIKSDGSEKYYVDSVKGRFTISRDNAKNSLYLQMNSLRAEDTAVYYCARDVGGDYSGSDLASYWGQGTLVTVSS VL: DIQMTQSPSSLSASVGDRVTITCRASQSISSYLNWYQQKPGKAPKLLIYAASSLQSGVPSRFSGSGSGTDFTLTISSLQPEDFATYYCQQGYDPPLTFGGGTKVEIK	38.2	150	893	1.2 nM	1230	17.6%	7%	4.26 nM	no binding (tested: 100 nM)	18.8%	24.3%	38.4%
C-109 (antibody, V domains shown, human IgG1) VH: EVQLVESGGGLVQPGGSLRLSCAASGFTFSSYWMSWVRQAPGKGLEWVANIKSDGSEKYYVDSVKGRFTISRDNAKNSLYLQMNSLRAEDTAVYYCARDVGGDYSGSDLASYWGQGTLVTVSS VL: not shown	247	164	867	1.24 nM	1240	17.6%	8.3%	4.8 nM	no binding (tested: 100 nM)	30%	31.1%	38.9%
C-89 (antibody, V domains shown, human IgG1) VH: QLQLQESGPGLVKPSETLSLTCTVSGGSISSSSYYWGWIRQPPGKGLEWIGSIYYSGSTYYNPSLKSRVTISVDTSKNQFSLKLSSVTAADTAVYYCAREGPRFDPWGQGTLVTVSS VL: not shown	109	203	1120	1.16 nM	1420	20.6%	10.5%	4.88 nM	no binding (tested: 100 nM)	19.6%	25.3%	41.2%
C-95 (antibody, V domains shown, human IgG1) VH: not shown VL: DIVMTQSPDSLAVSLGERATINCKSSQSVLYSSNNKNYLAWYQQKPGQAPRLLIYGASSRATGIPDRFSGSGSGTDFTLTISRLEPEDFAVYYCQQDYSSPLTFGGGTKVEIK	144	48	569	9.65 nM	369	85%	92.3%	71.5 nM	no binding (tested: 100 nM)	87.9%	83%	–
C-87 (antibody, V domains shown, human IgG1) VH: QLQLQESGPGLVKPSETLSLTCTVSGGSISSSSYAWGWIRQPPGKGLEWIGSIYYSGSTYYNPSLKSRVTISVDTSKNQFSLKLSSVTAADTAVYYCARDPLYPLTPYGMDVWGQGTTVTVSS VL: EIVMTQSPATLSLSPGERATLSCRASQSVSSYLAWYQQKPGQAPRLLIYDASNRATGIPARFSGSGSGTDFTLTISSLEPEDFAVYYCQQLSVFPPTFGGGTKVEIK	246	172	971	1.93 nM	1260	29.4%	9.5%	7.04 nM	no binding (tested: 100 nM)	28.4%	36.1%	47.5%
C-88 (antibody, V domains shown, human IgG1) VH: QLQLQESGPGLVKPSETLSLTCTVSGGSISSSSYYWGWIRQPPGKGLEWIGSIYYSGSTYYNPSLKSRVTISVDTSKNQFSLKLSSVTAADTAVYYCARLPIYYDSSGYFDYHGMDVWGQGTTVTVSS VL: EIVLTQSPATLSLSPGERATLSCRASQSVSSYLAWYQQKPGQAPRLLIYDASNRATGIPARFSGSGSGTDFTLTISSLEPEDFAVYYCQQHANHPPTFGGGTKVEIK	204	178	957	0.734 nM	1200	39.4%	10.9%	2.7 nM	no binding (tested: 100 nM)	18.6%	28.7%	41.4%
C-9 (antibody, V domains shown, human IgG1) VH: QLQLQESGPGLVKPSETLSLTCTVSGGSISSSSYYWGWIRQPPGKGLEWIGSIYYSGSTYYNPSLKSRVTISVDTSKNQFSLKLSSVTAADTAVYYCARESGFAGLDPWGQGTLVTVSS VL: EIVLTQSPGTLSLSPGERATLSCRASQSVSSSFLAWYQQKPGQAPRLLIYGASSRATGIPDRFSGSGSGTDFTLTISRLEPEDFAVYYCQQSEDWPTFGGGTKVEIK	307	1700	175	1.09 nM	886	27.8%	20%	4.17 nM	no binding (tested: 100 nM)	26%	33.1%	63.4%
